Measurements published in patent publication US8586056.
Read-outs that look alike come from different tables or passages of the source.

How the values were obtained:
[1] = molecular target: Env of the 16055 virus (HIV-1 clade C, isolate 16055)
[2] = molecular target: 16936V1-3-55 gp160 full length Env (HIV-1 (16936 with 16055 V1-3 loops))
[3] = molecular target: HIV-1 Env 16936 (HIV-1, isolate 16936)
[4] = molecular target: HIV-1 clade C 16055 gp120-Histag, EF117268_gp120 (HIV-1 clade C, isolate 16055); experiment: Octet
[5] = molecular target: HIV-1 clade C 16055 gp120-Histag, EF117268_gp120 (HIV-1 clade C, isolate 16055); experiment: Octet (biolayer interferometry)
[6] = molecular target: BG505_gp120 (HIV-1 clade A, BG505); experiment: ELISA on BG505 gp120
[7] = molecular target: Env of the 16055 virus (HIV-1 clade C, isolate 16055); remark: listed apart in the source
JRFL (HIV-1) [8] = molecular target: JRFL (HIV-1)
Zm197 (HIV-1) [9] = molecular target: Zm197 (HIV-1)
[10] = molecular target: 0013095 (EF117267) (HIV-1)
DU422 (HIV-1) [11] = molecular target: DU422 (HIV-1)
[12] = molecular target: Zm109F (AY424138) (HIV-1)
SF162 (HIV-1) [13] = molecular target: SF162 (HIV-1)
QH0692 (HIV-1) [14] = molecular target: QH0692 (HIV-1)
Du172 (HIV-1) [15] = molecular target: Du172 (HIV-1)
YU2 [16] = molecular target: YU2
JRCSF [17] = molecular target: JRCSF
Zm135 (HIV-1) [18] = molecular target: Zm135 (HIV-1)
CAP45 (HIV-1) [19] = molecular target: CAP45 (HIV-1)
ZM214 (HIV-1) [20] = molecular target: ZM214 (HIV-1)
[21] = molecular target: HIV-1 Env 16936 (HIV-1, isolate 16936); remark: listed apart in the source
[22] = molecular target: Env of the 16055 virus (HIV-1 clade C, isolate 16055); experiment: ELISA; same curves as panel 16055-2 of FIG. 3A
[23] = molecular target: 16936-16055V123loop (HIV-1 (16936 backbone with 16055 V1, V2 and V3 loops)); experiment: ELISA
[24] = molecular target: Env of the 16055 virus (HIV-1 clade C, isolate 16055); remark: listed apart in the source
Zm197 (HIV-1) [25] = molecular target: Zm197 (HIV-1); remark: listed apart in the source
DU422 (HIV-1) [26] = molecular target: DU422 (HIV-1); remark: listed apart in the source
Du172 (HIV-1) [27] = molecular target: Du172 (HIV-1); remark: listed apart in the source
YU2 [28] = molecular target: YU2; remark: listed apart in the source
JRCSF [29] = molecular target: JRCSF; remark: listed apart in the source
Zm135 (HIV-1) [30] = molecular target: Zm135 (HIV-1); remark: listed apart in the source
CAP45 (HIV-1) [31] = molecular target: CAP45 (HIV-1); remark: listed apart in the source
[32] = molecular target: HIV-1 clade C 16055 gp140-Histag, EF117268_gp140 (HIV-1 clade C, isolate 16055); experiment: ELISA on recombinant gp140
0013095 gp140 = experiment: ELISA on recombinant gp140
[33] = molecular target: Env of the 16055 virus (HIV-1 clade C, isolate 16055); experiment: shed gp120 capture ELISA
JRCSF [34] = experiment: shed gp120 capture ELISA
[35] = molecular target: HIV-1 clade C 16055 gp140-Histag, EF117268_gp140 (HIV-1 clade C, isolate 16055); experiment: ELISA on recombinant gp140; remark: listed apart in the source
[36] = molecular target: 16055 gp140 trimer with c-terminus trimerization domain GCN4 (HIV-1 clade C, isolate 16055); experiment: ELISA on recombinant gp140
JRFL (HIV-1) [37] = molecular target: JRFL (HIV-1); remark: listed apart in the source
SF162 (HIV-1) [38] = molecular target: SF162 (HIV-1); remark: listed apart in the source
QH0692 (HIV-1) [39] = molecular target: QH0692 (HIV-1); remark: listed apart in the source
ZM214 (HIV-1) [40] = molecular target: ZM214 (HIV-1); remark: listed apart in the source

4E10 (antibody)
neutralization IC50 [1]: 7.02 µg/mL | neutralization IC50 [2]: 2.68 µg/mL | neutralization IC50 [3]: 3.85 µg/mL

A32 (antibody)
Kd [4]: 5.2 nM | koff [4]: 8.23e-05 s⁻¹ | kon [4]: 15600 M⁻¹ s⁻¹

F105 (antibody)
Kd [5]: 200 nM | koff [4]: 0.00169 s⁻¹ | kon [4]: 8430 M⁻¹ s⁻¹

PG9 (antibody)
EC50 (read off the curve) [6]: 0.04 µg/mL | neutralization IC50 [2]: 0.03 µg/mL | neutralization IC50 [3]: > 25 µg/mL | neutralization IC50 [7]: < 0.01 µg/mL | neutralization IC50 (JRFL (HIV-1) [8]): > 25 µg/mL | neutralization IC50 (Zm197 (HIV-1) [9]): 0.61 µg/mL | neutralization IC50 [10]: < 0.01 µg/mL | neutralization IC50 (DU422 (HIV-1) [11]): 1.64 µg/mL | neutralization IC50 [12]: 0.46 µg/mL | neutralization IC50 (AC10 (HIV-1)): 0.05 µg/mL | neutralization IC50 (25925 (EF117273) (HIV-1)): 0.15 µg/mL | neutralization IC50 (Bal (HIV-1)): < 0.01 µg/mL | neutralization IC50 (SF162 (HIV-1) [13]): > 25 µg/mL | neutralization IC50 (QH0692 (HIV-1) [14]): > 25 µg/mL | neutralization IC50 (Du172 (HIV-1) [15]): 0.49 µg/mL | neutralization IC50 (YU2 [16]): < 0.01 µg/mL | neutralization IC50 (JRCSF [17]): < 0.01 µg/mL | neutralization IC50 (Zm135 (HIV-1) [18]): 17.6 µg/mL | neutralization IC50 (CAP45 (HIV-1) [19]): < 0.01 µg/mL | neutralization IC50 (ZM214 (HIV-1) [20]): > 25 µg/mL | neutralization IC50 (virus printed '6936') [21]: > 25 µg/mL | neutralization IC50 (25710 (EF117271) (HIV-1)): < 0.01 µg/mL | neutralization IC50 (6535 (AY835438) (HIV-1)): 0.6 µg/mL | neutralization IC50 (CAAN (AY835452) (HIV-1)): 11.9 µg/mL | neutralization IC50 (PVO (HIV-1)): 9.76 µg/mL | EC50 (read off the curve) [22]: 0.3 µg/mL | EC50 (read off the curve) [23]: 0.2 µg/mL | neutralization IC50 [24]: 0.01 µg/mL | neutralization IC50 (UG037 (HIV-1)): 0.02 µg/mL | neutralization IC50 (Zm197 (HIV-1) [25]): 0.287 µg/mL | neutralization IC50 (RW020 (HIV-1)): 0.05 µg/mL | neutralization IC50 (Q842 (HIV-1)): 0.02 µg/mL | neutralization IC50 (DU422 (HIV-1) [26]): 0.178 µg/mL | neutralization IC50 (REJ0451 (HIV-1)): 0.001 µg/mL | neutralization IC50 (Du172 (HIV-1) [27]): 0.24 µg/mL | neutralization IC50 (YU2 [28]): 1.73 µg/mL | neutralization IC50 (JRCSF [29]): 0.002 µg/mL | neutralization IC50 (Zm135 (HIV-1) [30]): > 25 µg/mL | neutralization IC50 (CAP45 (HIV-1) [31]): 0.003 µg/mL | neutralization IC50 (MulV): > 25 µg/mL | neutralization IC50 (WIT04160 (HIV-1)): 0.005 µg/mL | EC50 (read off the curve) [32]: 0.1 µg/mL | EC50 (read off the curve) (0013095 gp140): 0.9 µg/mL | EC50 (read off the curve) [33]: 0.3 µg/mL | EC50 (read off the curve) (JRCSF [34]): 0.3 µg/mL | EC50 (read off the curve) [35]: 0.2 µg/mL | EC50 (read off the curve) [36]: 0.1 µg/mL

PG16 (antibody)
EC50 (read off the curve) [6]: 0.2 µg/mL | neutralization IC50 [1]: < 0.01 µg/mL | neutralization IC50 [2]: 0.06 µg/mL | neutralization IC50 [3]: > 25 µg/mL | neutralization IC50 (JRFL (HIV-1) [8]): > 25 µg/mL | neutralization IC50 (Zm197 (HIV-1) [9]): 1.68 µg/mL | neutralization IC50 [10]: < 0.01 µg/mL | neutralization IC50 (DU422 (HIV-1) [11]): 2.34 µg/mL | neutralization IC50 [12]: > 25 µg/mL | neutralization IC50 (AC10 (HIV-1)): < 0.01 µg/mL | neutralization IC50 (25925 (EF117273) (HIV-1)): 0.11 µg/mL | neutralization IC50 (Bal (HIV-1)): < 0.01 µg/mL | neutralization IC50 (SF162 (HIV-1) [13]): > 25 µg/mL | neutralization IC50 (QH0692 (HIV-1) [14]): > 25 µg/mL | neutralization IC50 (Du172 (HIV-1) [15]): 0.06 µg/mL | neutralization IC50 (YU2 [16]): < 0.01 µg/mL | neutralization IC50 (JRCSF [17]): < 0.01 µg/mL | neutralization IC50 (Zm135 (HIV-1) [18]): > 25 µg/mL | neutralization IC50 (CAP45 (HIV-1) [19]): < 0.01 µg/mL | neutralization IC50 (ZM214 (HIV-1) [20]): > 25 µg/mL | neutralization IC50 (virus printed '6936') [21]: > 25 µg/mL | neutralization IC50 (25710 (EF117271) (HIV-1)): < 0.01 µg/mL | neutralization IC50 (6535 (AY835438) (HIV-1)): > 25 µg/mL | neutralization IC50 (CAAN (AY835452) (HIV-1)): 12.9 µg/mL | neutralization IC50 (PVO (HIV-1)): 21.9 µg/mL | neutralization IC50 [24]: 0.01 µg/mL | neutralization IC50 (UG037 (HIV-1)): 0.01 µg/mL | neutralization IC50 (Zm197 (HIV-1) [25]): 0.765 µg/mL | neutralization IC50 (RW020 (HIV-1)): 0.037 µg/mL | neutralization IC50 (Q842 (HIV-1)): 0.009 µg/mL | neutralization IC50 (DU422 (HIV-1) [26]): 0.042 µg/mL | neutralization IC50 (REJ0451 (HIV-1)): 0.004 µg/mL | neutralization IC50 (Du172 (HIV-1) [27]): 0.023 µg/mL | neutralization IC50 (YU2 [28]): 0.114 µg/mL | neutralization IC50 (JRCSF [29]): 0.001 µg/mL | neutralization IC50 (CAP45 (HIV-1) [31]): 0.002 µg/mL | neutralization IC50 (MulV): > 25 µg/mL | neutralization IC50 (WIT04160 (HIV-1)): 0.002 µg/mL | EC50 (read off the curve) [32]: 0.08 µg/mL | EC50 (read off the curve) [35]: 0.1 µg/mL | EC50 (read off the curve) [36]: 0.08 µg/mL

VRC01 (antibody)
Kd [5]: 61 nM | koff [4]: 0.000294 s⁻¹ | kon [4]: 4780 M⁻¹ s⁻¹

b6 (antibody)
Kd [4]: 7.7 nM | koff [4]: 8.66e-05 s⁻¹ | kon [4]: 11000 M⁻¹ s⁻¹

b12 (antibody)
EC50 (read off the curve) [6]: 0.03 µg/mL | neutralization IC50 [1]: > 25 µg/mL | neutralization IC50 [2]: 20.5 µg/mL | neutralization IC50 [3]: > 25 µg/mL | Kd [5]: 120 nM | neutralization IC50 (JRFL (HIV-1) [37]): 0.022 µg/mL | neutralization IC50 (UG037 (HIV-1)): > 25 µg/mL | neutralization IC50 (Zm197 (HIV-1) [25]): > 25 µg/mL | neutralization IC50 (RW020 (HIV-1)): 10 µg/mL | neutralization IC50 (Q842 (HIV-1)): > 25 µg/mL | neutralization IC50 (DU422 (HIV-1) [26]): 0.464 µg/mL | neutralization IC50 (REJ0451 (HIV-1)): 5.92 µg/mL | neutralization IC50 (SF162 (HIV-1) [38]): 0.07 µg/mL | neutralization IC50 (QH0692 (HIV-1) [39]): 0.97 µg/mL | neutralization IC50 (Du172 (HIV-1) [27]): 0.3 µg/mL | neutralization IC50 (YU2 [28]): 2.18 µg/mL | neutralization IC50 (JRCSF [29]): 0.096 µg/mL | neutralization IC50 (Zm135 (HIV-1) [30]): > 25 µg/mL | neutralization IC50 (CAP45 (HIV-1) [31]): 0.37 µg/mL | neutralization IC50 (ZM214 (HIV-1) [40]): 13.6 µg/mL | neutralization IC50 (MulV): > 25 µg/mL | neutralization IC50 (WIT04160 (HIV-1)): 8.58 µg/mL | koff [4]: 0.00107 s⁻¹ | kon [4]: 8790 M⁻¹ s⁻¹
